Target: human calcium sensitive potassium channel α subunit (human Slowpoke α) (human), Q12791
Test: cell-based or functional assay

human calcium sensitive potassium channel α subunit (human Slowpoke α) (human), Q12791, sequence (Q12791 whole entry): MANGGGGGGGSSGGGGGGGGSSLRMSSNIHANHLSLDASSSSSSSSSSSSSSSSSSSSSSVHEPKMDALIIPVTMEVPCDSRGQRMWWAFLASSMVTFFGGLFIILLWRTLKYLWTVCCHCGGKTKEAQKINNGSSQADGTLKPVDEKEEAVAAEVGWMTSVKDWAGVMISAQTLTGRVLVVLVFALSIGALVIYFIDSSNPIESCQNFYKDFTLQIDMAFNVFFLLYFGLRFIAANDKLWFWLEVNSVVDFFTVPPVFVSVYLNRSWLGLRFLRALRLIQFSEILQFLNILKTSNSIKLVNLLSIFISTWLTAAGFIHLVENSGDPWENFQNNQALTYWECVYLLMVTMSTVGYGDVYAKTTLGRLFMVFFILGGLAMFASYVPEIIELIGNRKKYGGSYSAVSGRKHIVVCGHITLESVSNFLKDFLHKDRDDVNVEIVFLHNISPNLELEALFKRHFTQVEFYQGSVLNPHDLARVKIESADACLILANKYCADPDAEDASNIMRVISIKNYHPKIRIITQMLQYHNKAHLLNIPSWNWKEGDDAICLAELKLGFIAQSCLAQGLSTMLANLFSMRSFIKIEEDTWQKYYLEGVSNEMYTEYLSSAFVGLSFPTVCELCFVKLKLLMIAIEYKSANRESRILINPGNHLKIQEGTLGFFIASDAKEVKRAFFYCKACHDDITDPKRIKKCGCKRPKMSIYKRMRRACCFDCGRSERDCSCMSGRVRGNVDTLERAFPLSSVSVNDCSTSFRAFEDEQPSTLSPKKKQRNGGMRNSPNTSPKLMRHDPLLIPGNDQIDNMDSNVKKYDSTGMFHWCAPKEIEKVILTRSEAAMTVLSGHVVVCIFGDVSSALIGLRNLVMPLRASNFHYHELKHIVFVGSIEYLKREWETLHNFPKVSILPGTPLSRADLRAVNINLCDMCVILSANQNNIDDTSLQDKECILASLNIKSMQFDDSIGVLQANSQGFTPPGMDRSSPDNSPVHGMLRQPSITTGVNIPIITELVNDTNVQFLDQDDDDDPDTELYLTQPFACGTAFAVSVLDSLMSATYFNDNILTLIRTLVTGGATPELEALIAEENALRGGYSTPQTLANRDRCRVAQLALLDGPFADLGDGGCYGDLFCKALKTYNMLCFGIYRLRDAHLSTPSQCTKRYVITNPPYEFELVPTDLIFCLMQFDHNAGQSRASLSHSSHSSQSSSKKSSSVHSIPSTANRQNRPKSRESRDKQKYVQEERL

Row | Binder | V1/2 (half-maximal activation voltage, Boltzmann fit, inside-out patches, 30 µM Ca2+) [mV] | shift in the voltage dependence of activation [mV] | τinact (inactivation time constant at 80 mV with 30 µM intracellular Ca2+) [ms]
1 | human calcium sensitive potassium channel β2 subunit, Q9Y691 1-235 (protein) MFIWTSGRTSSSYRHDEKRNIYQKIRDHDLLDKRKTVTALKAGEDRAILLGLAMMVCSIMMYFLLGITLLRSYMQSVWTEESQCTLLNASITETFNCSFSCGPDCWKLSQYPCLQVYVNLTSSGEKLLLYHTEETIKINQKCSYIPKCGKNFEESMSLVNVVMENFRKYQHFSCYSDPEGNQKSVILTKLYSSNVLFHSLFWPTCMMAGGVAIVAMVKLTQYLSLLCERIQRINR | -55 | 80 | 30 to 40
2 | human calcium sensitive potassium channel β3a subunit, Q9NPA1 23-279 (protein) MQPFSIPVQITLQGSRRRQGRTAFPASGKKRETDYSDGDPLDVHKRLPSSTGEDRAVMLGFAMMGFSVLMFFLLGTTILKPFMLSIQREESTCTAIHTDIMDDWLDCAFTCGVHCHGQGKYPCLQVFVNLSHPGQKALLHYNEEAVQINPKCFYTPKCHQDRSDLLNSALDIKEFFDHKNGTPFSCFYSPASQSEDVILIKKYDQMAIFHCLFWPSLTLLGGALIVGMVRLTQHLSLLCEKYSTVVRDEVGGKVPYIEQHQFKLCIMRRSKGRAEKS | 45.4 |  | 30 to 40
3 | human calcium sensitive potassium channel β3c subunit, Q9NPA1 23-279 (protein) MFPLLYELTAVSPSPFPQRTAFPASGKKRETDYSDGDPLDVHKRLPSSTGEDRAVMLGFAMMGFSVLMFFLLGTTILKPFMLSIQREESTCTAIHTDIMDDWLDCAFTCGVHCHGQGKYPCLQVFVNLSHPGQKALLHYNEEAVQINPKCFYTPKCHQDRSDLLNSALDIKEFFDHKNGTPFSCFYSPASQSEDVILIKKYDQMAIFHCLFWPSLTLLGGALIVGMVRLTQHLSLLCEKYSTVVRDEVGGKVPYIEQHQFKLCIMRRSKGRAEKS | 20 |  | 30 to 40

From patent publication EP1475388A2
